Source: PMC2798008

B1: agrB promoter (dsDNA)
DNA 1: ATTTAACAGTTAAGTATTTATTTCCTACAGTTAGGCAATATAATGATAAA
DNA 2: TTTATCATTATATTGCCTAACTGTAGGAAATAAATACTTAACTGTTAAAT
B2: sbi promoter (dsDNA)
DNA 1: CACTAGTTAATCTATTAGTTAACATTAGTTAATAATTAGTTAATTTCCAT
DNA 2: ATGGAAATTAACTAATTATTAACTAATGTTAACTAATAGATTAACTAGTG

Target: T1, SaeRHis (Staphylococcus aureus USA300, UniProt Q2FIT4 1-228)
T1 sequence: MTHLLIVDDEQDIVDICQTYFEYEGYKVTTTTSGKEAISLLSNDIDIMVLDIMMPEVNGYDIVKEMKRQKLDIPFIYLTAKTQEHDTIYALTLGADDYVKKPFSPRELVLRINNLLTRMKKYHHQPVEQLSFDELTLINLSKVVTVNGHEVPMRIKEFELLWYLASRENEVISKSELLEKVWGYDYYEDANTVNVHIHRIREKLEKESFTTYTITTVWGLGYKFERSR
Assay: EMSA

Row | Binder | binding result
1 | B1 | no binding
2 | B2 | binds
